According to FireProtDB (doi:10.1074/jbc.270.30.17712):
“And” between values parts separate entries of the source, which are not always exact repeats. Equal entries are not always repeated.

Conditions: Escherichia coli (strain K12); pH 7.8; 23 °C; Urea; Absorbance; Potassium phosphate 10 mM; transition: 3; reversible: yes; whole UniProt chain shown

B1: Tryptophan synthase alpha chain wild type, P0A877 (protein)
chain: MERYESLFAQLKERKEGAFVPFVTLGDPGIEQSLKIIDTLIEAGADALELGIPFSDPLADGPTIQNATLRAFAAGVTPAQCFEMLALIRQKHPTIPIGLLMYANLVFNKGIDEFYAQCEKVGVDSVLVADVPVEESAPFRQAALRHNVAPIFICPPNADDDLLRQIASYGRGYTYLLSRAGVTGAENRAALPLNHLVAKLKEYNAAPPLQGFGISAPDQVKAAIDAGAAGAISGSAIVKIIEQHINEPEKMLAALKVFVQPMKAATRS
denaturant m value: 2.5 kcal/mol/M and 1.4 kcal/mol/M | denaturant midpoint (higher = more stable): 2.51 M and 3.73 M | unfolding free energy: 6.4 kcal/mol and 5.2 kcal/mol
